The values below come from US20040265808A1, “Genes involved in osteogenesis, and methods of use” (priority 2001, published 2004).

In the data set the test system is C3H10T1/2 cells. Put plainly: Transient over-expression of candidate genes, cooperation with BMP2 by measurement of alkaline phosphatase. Conditions: for Validation in vitro (coop over BMP2) C3H10T1/2: alkaline phosphatase; for Validation in C2H10T1/2 (coop over BMP2): alkaline phosphatase at 48 hours. The class given is cell-based, mouse. Details: key: +: positive or negative cooperation with BMP2; −: positive or negative cooperation with BMP2. As to the method:
Mouse cell lines representing different stages of osteoblastic differentiation, C2C12, C2H10T1/2, ST2 and MC3T3-E1, were grown in the presence of agents capable of the induction of osteoblastic differentiation in vitro such as BMP2 and Sonic Hedgehog or in the presence of TGF beta (negative control) or with serum alone. Primary cells derived from mouse calvaria were also cultured for 0, 2, 7 14 and 21 days and RNA prepared for each time point. For example, C3H10T ½ and C2C12 can be obtained from the ATCC (Manassas, Va., USA) under the collection numbers CCL-226 and CRL-1772, respectively.
The candidates genes are cloned in expression vectors and their ability to express a protein of the expected size verified by COS cells transient transfection. The genes are then transfected in C3H10T1/2 cells and/or C2C12 cells (transient over-expression) and positive or negative cooperation with BMP2 is evaluated by the measurement of alkaline phosphatase (enzymatic assay and TaqMan) at 48 hours. Controls of positive cooperation, recombinant Sonic Hedgehog, or negative cooperation, recombinant Noggin, are included in each test.

B1: 48 (nucleic acid, listed as Mus musculus)
chain: AATCTAGAATGGCAGCTGCCTCTACTTCCAGCCCTGTAATTTCACAGCCCCAGTTCACAGCCATGAACGAACAACAGTGCTTCTACAATGAGTCTATCGCCTTCTTTTATAACCGGAGTGGGAAATATCTAGCCACAGAATGGAACACAGTGAGCAAGCTGGTGATGGGACTGGGCATCACTGTTTGCGTGTTCATCATGTTGGCCAATCTCCTGGTCATGGTGGCAATCTACGTCAACCGCCGCTTCCATTTCCCTATTTATTACTTGATGGCCAACCTGGCTGCTGCAGACTTCTTCGCTGGATTGGCCTACTTCTACCTGATGTTCAATACAGGACCTAATACCCGGAGACTGACTGTTAGCACGTGGCTCCTCCGGCAGGGCCTCATTGACACCAGCCTGACAGCTTCTGTGGCCAACCTGCTGGCTATTGCTATCGAGAGGCACATCACGGTTTTCCGCATGCAGCTCCATACACGAATGAGCAACCGGCGCGTGGTGGTGGTGATTGTAGTCATCTGGACTATGGCCATTGTGATGGGTGCTATACCCAGTGTGGGCTGGAACTGCATCTGTGATATCGATCACTGTTCCAACATGGCACCCCTCTACAGTGACTCCTACTTAGTCTTCTGGGCCATTTTCAACCTGGTGACCTTTGTGGTCATGGTGGTTCTCTACGCTCACATCTTTGGCTATGTTCGCCAGAGGACTATGAGGATGTCTCGGCATAGTTCTGGACCCAGGAGGAATCGGGACACCATGATGAGCCTTCTGAAGACTGTGGTCATTGTGCTTGGTGCCTTTATTGTCTGCTGGACTCCGGGATTGGTCTTGTTATTGCTGGATGTGTGCTGCCCGCAGTGCGATGTCCTGGCCTATGAGAAGTTCTTCCTCCTCCTGGCCGAGTTCAACTCTGCTATGAACCCCATCATCTACTCCTACCGCGACAAAGAGATGAGCGCCACCTTCAGGCAGATCCTGTGTTGCCAGCGCAACGAGAACCCTAATGGCCCCACGGAAGGCTCTGACCGCTCTGCCTCCTCCCTCAACCACACCATTCTGGCTGGAGTTCACAGCAACGACCACTCTGTGGTTACTAGTAA
Regarding B1, the “Validation in vitro (coop over BMP2) C3H10T1/2” value is recorded as “+” and the “Validation in C2H10T1/2 (coop over BMP2)” value is “+ coop over BMP2”.

B2: 24 (nucleic acid, listed as Mus musculus)
chain: CGATCGATATGGCCAGCCCGCTGCGCTCCTTGCTGTTCCTGCTGGCCGTCCTGGCCGTGGCCTGGGCGGCGACCCCAAAACAAGGCCCGCGAATGTTGGGAGCCCCGGAGGAGGCAGATGCCAATGAGGAAGGCGTGCGGCGAGCGTTGGACTTCGCTGTGAGCGAGTACAACAAGGGCAGCAACGATGCGTACCACAGCCGCGCCATACAGGTGGTGAGAGCTCGTAAGCAGCTCGTGGCTGGAGTGAACTATTTTTTGGATGTGGAGATGGGCCGAACTACATGTACCAAGTCCCAGACAAATTTGACTGACTGTCCTTTCCATGACCAGCCCCATCTGATGAGGAAGGCACTCTGCTCCTTCCAGATCTACAGCGTGCCCTGGAAAGGCACACACTCCCTGACAAAATTCAGCTGCAAAAATGCCGCGGCCGCTT
With B2, the “Validation in vitro (coop over BMP2) C3H10T1/2” value is “−”.

B3: 46 (nucleic acid, listed as Mus musculus)
chain: AATCTAGAATGGTGTCCACTAGCATCCCGGAGGTTAAAGCTCTCCGCAGCTCAGTCTCTGACTATGGGAACTATGATATCATAGTCCGGCATTACAACTACACAGGCAAGTTGAACATCGGGGCGGAGAAGGACCATGGCATTAAACTGACTTCAGTGGTGTTCATTCTCATCTGCTGCTTCATCATCCTAGAGAATATATTTGTCTTGCTAACTATTTGGAAAACCAAGAAGTTCCACCGGCCCATGTACTATTTCATAGGCAACCTAGCCCTCTCGGACCTATTAGCAGGCGTGGCTTACACAGCTAACCTGCTGTTGTCTGGGGCCACCACTTACAAGCTCACACCTGCCCAGTGGTTTCTGCGGGAAGGGAGTATGTTTGTGGCTCTCTCTGCATCAGTCTTCAGCCTCCTTGCCATCGCCATTGAGCGCTACATCACCATGCTGAAGATGAAACTACACAACGGGAGCAACAGCTCGCGCTCCTTTCTGCTGATCAGCGCCTGCTGGGTCATCTCCCTCATCCTGGGGGGCCTGCCCATCATGGGCTGGAACTGCATCAGCTCGCTGTCTAGCTGCTCCACCGTGCTCCCGCTCTACCACAAGCACTATATTCTCTTCTGCACCACCGTCTTCACTCTGCTCCTGCTTTCCATCGTCATCCTCTACTGCAGGATCTACTCCTTGGTCAGGACTCGAAGCCGCCGCCTGACCTTCCGCAAGAACATCTCCAAGGCCAGTCGCAGTTCTGAGAAGTCTCTGGCCTTGCTGAAGACGGTGATCATTGTCTTGAGTGTCTTCATTGCCTGCTGGGCCCCTCTCTTCATCCTACTACTGTTAGATGTGGGCTGCAAGGCGAAGACCTGTGACATCCTGTACAAAGCAGAGTACTTCCTGGTTCTGGCTGTGCTGAACTCAGGTACCAACCCCATCATCTACACTCTGACCAACAAGGAGATGCGCCGGGCCTTCATCCGGATCGTATCTTGTTGCAAATGCCCCAACGGAGACTCTGCTGGCAAATTCAAGAGGCCCATCATCCCAGGCATGGAATTTAGCCGCAGCAAATCAGACAACTCCTCTCACCCCCAGAAGGACGATGGGGACAACCCAGAGACCATTATGTCGTCTGGAAACGTCAATTCTTCTTCCACTAGTAA
As to B3, the “Validation in vitro (coop over BMP2) C3H10T1/2” value was “+” and the “Validation in C2H10T1/2 (coop over BMP2)” value is on record as “+ coop over BMP2”.

B4: 65 (nucleic acid, listed as Mus musculus)
chain: AATCTAGAATGGAGGCCAGAGCTCAGAGTGGCAACGGGTCGCAGCCTTTGCTGCAGACAGCCCATGACAGTGGCAGGCAGCGCGGGGAGCCGGATCCAAGAGATGCCCTTACCCAGCAGGTACACGTCTTGTCTCTGGATCAGATCAGAGCCATCCGAAACACCAATGAGTACACAGAGGGCCCTACTGTGGTCCCAAGACCTGGGCTCAAGCCTGCTCCTCGCCCCTCCACTCAGCACAAACATGAAAGACTCCACGGTCTGCCGGAGCACCGCCAGCCTCCCAGGCTCCAGCCCTCGCAGGTCCATTCTTCACGGGCCCCTCTGTCCAGGTCCATCAGCACTGTCAGCTCAGGGTCTCGGAGCAGTACAAGGACAAGTACCAGCAGCAGCTCCTCGGAACAGAGACTGTTAGGACCGTCCTTCTCCCACGGGCCTGCTGCTGCTGATGGAATAATCCGAGTGCAGCCTAAATCGGAGCTCAAGCCAGGTGACGTTAAGCCACTGAGCAAGGATGATTTGGGTCTGCATGCCTACAGGTGTGAGGACTGCGGCAAGTGCAAGTGTAAGGAGTGCACCTACCCGAGGCCCCTGCCGTCGGACTGGATCTGTGACAAGCAGTGCCTCTGCTCAGCCCAGAACGTCATTGACTATGGGACTTGTGTGTGCTGTGTGAAAGGTCTCTTCTATCACTGCTCCAATGACGATGAGGACAATTGTGCTGACAACCCGTGCTCTTGCAGCCAGTCCCATTGTTGTACGCGATGGTCAGCGATGGGAGTCATGTCTCTCTTTTTGCCTTGTTTATGGTGTTACCTTCCAGCCAAGGGTTGCCTTAAATTGTGCCAGGGGTGTTATGACCGAGTGAACAGGCCGGGTTGTCGTTGTAAAAACTCAAATACAGTTTGCTGCAAAGTTCCCACTGTCCCCCCTAGGAACTTTGAAAAACCAACAACTAGTAAAAGGGCGAATTCCAGCAC
As to B4, the “Validation in vitro (coop over BMP2) C3H10T1/2” value is on record as “+” and the “Validation in C2H10T1/2 (coop over BMP2)” value is reported as “+ coop over BMP2”.

B5: 7 (nucleic acid, listed as Mus musculus)
chain: AATCTAGAATGAAGTCCTGCGGCCTTTTACCTTTCACGGTGCTCCTTGCTCTGGGGATCCTGGCACCCTGGACTGTGGAAGGAGGCAAAAATGATGCTATCAAAATCGGAGCCTGCCCTGCTAAAAAGCCTGCCCAGTGCCTTAAGCTTGAGAAGCCACAATGCCGTACTGACTGGGAGTGCCCGGGAAAGCAGAGGTGCTGCCAAGATGCTTGCGGTTCCAAGTGCGTGAATCCTGTTCCCATTCGCAAACCAGTGTGGAGGAAGCCTGGGAGGTGCGTCAAAACTCAGGCAAGATGTATGATGCTTAACCCTCCCAATGTCTGCCAGAGGGACGGGCAGTGTGACGGCAAATACAAGTGCTGTGAGGGTATATGTGGGAAAGTCTGCCTGCCCCCGATGACTAGTAA
Turning to B5, the “Validation in vitro (coop over BMP2) C3H10T1/2” value is given as “+” and the “Validation in C2H10T1/2 (coop over BMP2)” value is given as “+ coop over BMP2”.
